Assay results published in PMC3988174.

Experiments:
[1] = target: atToc159 G-domain bait (Arabidopsis thaliana) (UniProt O81283); assay: two-hybrid; pairwise split-ubiquitin yeast two-hybrid of isolated NubG-preys with Toc159G, Toc132G or Toc132AG bait in NMY51; growth on SD-LWHA (3-AT) and quantitative β-Gal assay, activity relative to a reference bait set to 100%
[2] = target: atToc132 G-domain bait (Arabidopsis thaliana) (UniProt Q9SLF3); assay: as above
Sequence of atToc132 G-domain bait (Arabidopsis thaliana) (Q9SLF3 456-794): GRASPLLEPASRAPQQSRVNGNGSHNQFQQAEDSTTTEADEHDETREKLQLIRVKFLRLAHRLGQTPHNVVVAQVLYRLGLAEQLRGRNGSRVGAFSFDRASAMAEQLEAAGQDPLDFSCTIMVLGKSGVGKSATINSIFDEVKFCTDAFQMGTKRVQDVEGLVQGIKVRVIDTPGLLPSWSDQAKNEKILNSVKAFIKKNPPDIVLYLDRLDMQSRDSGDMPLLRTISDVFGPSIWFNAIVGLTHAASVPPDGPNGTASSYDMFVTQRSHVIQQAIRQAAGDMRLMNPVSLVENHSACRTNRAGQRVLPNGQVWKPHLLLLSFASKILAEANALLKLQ

Sequence of atToc159 G-domain bait (Arabidopsis thaliana) (O81283 728-1092): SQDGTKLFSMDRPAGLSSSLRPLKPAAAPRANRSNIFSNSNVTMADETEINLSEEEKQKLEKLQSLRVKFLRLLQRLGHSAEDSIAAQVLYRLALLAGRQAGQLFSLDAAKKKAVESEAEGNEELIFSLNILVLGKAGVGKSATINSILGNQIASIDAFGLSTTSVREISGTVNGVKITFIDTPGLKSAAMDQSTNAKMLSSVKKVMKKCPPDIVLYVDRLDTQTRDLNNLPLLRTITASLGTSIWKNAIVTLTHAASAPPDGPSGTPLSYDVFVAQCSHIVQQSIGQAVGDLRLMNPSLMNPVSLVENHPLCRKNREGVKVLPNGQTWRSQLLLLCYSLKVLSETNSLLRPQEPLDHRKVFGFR

Row | % increase in strength of interaction (β-Gal) with Toc159G against Toc132G [1] [%] | Binder | other results
1 | 40.5 | Protochlorophyllide oxidoreductase B (natural protein) MALQAASLVSSAFSVRKDAKLNASSSSFKDSSLFGASITDQIKSEHGSSSLRFKREQSLRNLAIRAQTAATSSPTVTKSVDGKKTLRKGNVVVTGASSGLGLATAKALAETGKWNVIMACRDFLKAERAAKSVGMPKDSYTVMHLDLASLDSVRQFVDNFRRTETPLDVLVCNAAVYFPTAKEPTYSAEGFELSVATNHLGHFLLARLLLDDLKKSDYPSKRLIIVGSITGNTNTLAGNVPPKANLGDLRGLAGGLNGLNSSAMIDGGDFDGAKAYKDSKVCNMLTMQEFHRRFHEETGVTFASLYPGCIASTGLFREHIPLFRALFPPFQKYITKGYVSETESGKRLAQVVSDPSLTKSGVYWSWNNASASFENQLSEEASDVEKARKVWEISEKLVGLA | –
2 | – | Ferredoxin-thioredoxin reductase subunit A (natural protein) MNLQAVSCSFGFLSSPLGVTPRTSFRRFVIRAKTEPSEKSVEIMRKFSEQYARRSGTYFCVDKGVTSVVIKGLAEHKDSYGAPLCPCRHYDDKAAEVGQGFWNCPCVPMRERKECHCMLFLTPDNDFAGKDQTITSDEIKETTANM | % increase in strength of interaction (β-Gal) with 132G against 159G [2]: 45.2%
3 | 24 | Photosystem II subunit X (natural protein) MASTSAMSLVTPLNQTRSSPFLKPLPLKPSKALVATGGRAQRLQVKALKMDKALTGISAAALTASMVIPEIAEAAGSGISPSLKNFLLSIASGGLVLTVIIGVVVGVSNFDPVKRT | –
4 | – | Light-Harvesting Chlorophyll-Protein Complex I Subunit A4 (natural protein) MATVTTHASASIFRPCTSKPRFLTGSSGRLNRDLSFTSIGSSAKTSSFKVEAKKGEWLPGLASPDYLTGSLAGDNGFDPLGLAEDPENLKWFVQAELVNGRWAMLGVAGMLLPEVFTKIGIINVPEWYDAGKEQYFASSSTLFVIEFILFHYVEIRRWQDIKNPGSVNQDPIFKQYSLPKGEVGYPGGIFNPLNFAPTQEAKEKELANGRLAMLAFLGFVVQHNVTGKGPFENLLQHLSDPWHNTIVQTFN | % decrease in strength of interaction (β-Gal) with Toc159G against Toc132G [1]: -38.5%
